Assay results: IntAct's records for PubMed 15147197

B1: Ferredoxin--NADP reductase, leaf isozyme, chloroplastic (Pisum sativum (Garden pea)), P10933 (parent)
chain: MAAAVTAAVSLPYSNSTSLPIRTSIVAPERLVFKKVSLNNVSISGRVGTIRAQVTTEAPAKVVKHSKKQDENIVVNKFKPKEPYVGRCLLNTKITGDDAPGETWHMVFSTEGEVPYREGQSIGIVPDGIDKNGKPHKLRLYSIASSAIGDFGDSKTVSLCVKRLVYTNDAGEVVKGVCSNFLCDLKPGSEVKITGPVGKEMLMPKDPNATVIMLGTGTGIAPFRSFLWKMFFEKHEDYQFNGLAWLFLGVPTSSSLLYKEEFEKMKEKAPENFRLDFAVSREQVNDKGEKMYIQTRMAQYAEELWELLKKDNTFVYMCGLKGMEKGIDDIMVSLAAKDGIDWIEYKRTLKKAEQWNVEVY
B2: Ferredoxin--NADP reductase (Anabaena sp. (strain PCC 7119)), P21890 (parent)
chain: MSNQGAFDGAANVESGSRVFVYEVVGMRQNEETDQTNYPIRKSGSVFIRVPYNRMNQEMQRITRLGGKIVTIQTVSALQQLNGRTTIATVTDASSEIAKSEGNGKATPVKTDSGAKAFAKPPAEEQLKKKDNKGNTMTQAKAKHADVPVNLYRPNAPFIGKVISNEPLVKEGGIGIVQHIKFDLTGGNLKYIEGQSIGIIPPGVDKNGKPEKLRLYSIASTRHGDDVDDKTISLCVRQLEYKHPESGETVYGVCSTYLTHIEPGSEVKITGPVGKEMLLPDDPEANVIMLATGTGIAPMRTYLWRMFKDAERAANPEYQFKGFSWLVFGVPTTPNILYKEELEEIQQKYPDNFRLTYAISREQKNPQGGRMYIQDRVAEHADELWQLIKNQKTHTYICGLRGMEEGIDAALSAAAAKEGVTWSDYQKDLKKAGRWHVETY

Variants of: B1
Conditions: with fer1_pea PETF

effect of a mutation on the interaction | Variant
increasing interaction | Y360W
increasing interaction | Y360S

Variants of: B2
Conditions: with fer1_nosso petF

effect of a mutation on the interaction | Variant
increasing interaction | Y440S
increasing interaction | Y440W

Variants of: B2
Conditions: with fer1_nosso petF
Remark: another data set of the same source

effect of a mutation on the interaction | Variant
increasing interaction | Y440F
